Measured values from article PMC6534611.

Molecular target: Ptch1 variant △893-899/T903A/K904A/Q905A/N1000Q (human) (UniProt Q13635)
Test: not stated; Ptch1 variant alone or in complex with ShhNp; Supplementary Fig. 8c

Substance: Ptch1 variant △893-899/T903A/K904A/Q905A/N1000Q (from UniProt Q13635 1-1305) (receptor)
- stoichiometry N: 4
